Test results reported in patent US12383631 (BRIGHT PEAK THERAPEUTICS, dated 2025).

T1: IL-18 receptor (IL-18Rα/IL-18Rβ) on cells (HEK-Blue IL18R reporter cells, NK-92, KG-1) (human, UniProt Q13478 19-541; O95256 20-599)
T1 sequence (looked up) 1: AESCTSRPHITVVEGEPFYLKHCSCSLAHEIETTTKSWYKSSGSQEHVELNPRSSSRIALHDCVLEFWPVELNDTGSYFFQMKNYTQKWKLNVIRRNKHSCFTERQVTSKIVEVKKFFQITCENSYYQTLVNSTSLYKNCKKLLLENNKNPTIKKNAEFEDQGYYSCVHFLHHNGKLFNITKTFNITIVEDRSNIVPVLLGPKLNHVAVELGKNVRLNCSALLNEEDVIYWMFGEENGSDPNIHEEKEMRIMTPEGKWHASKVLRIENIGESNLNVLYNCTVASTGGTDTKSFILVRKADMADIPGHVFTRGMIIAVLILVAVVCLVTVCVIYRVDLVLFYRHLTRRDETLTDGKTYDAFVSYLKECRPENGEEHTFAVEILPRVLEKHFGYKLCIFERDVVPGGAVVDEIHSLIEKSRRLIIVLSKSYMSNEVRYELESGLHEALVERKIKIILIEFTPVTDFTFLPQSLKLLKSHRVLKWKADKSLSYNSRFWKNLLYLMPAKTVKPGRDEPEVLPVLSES
T1 sequence (looked up) 2: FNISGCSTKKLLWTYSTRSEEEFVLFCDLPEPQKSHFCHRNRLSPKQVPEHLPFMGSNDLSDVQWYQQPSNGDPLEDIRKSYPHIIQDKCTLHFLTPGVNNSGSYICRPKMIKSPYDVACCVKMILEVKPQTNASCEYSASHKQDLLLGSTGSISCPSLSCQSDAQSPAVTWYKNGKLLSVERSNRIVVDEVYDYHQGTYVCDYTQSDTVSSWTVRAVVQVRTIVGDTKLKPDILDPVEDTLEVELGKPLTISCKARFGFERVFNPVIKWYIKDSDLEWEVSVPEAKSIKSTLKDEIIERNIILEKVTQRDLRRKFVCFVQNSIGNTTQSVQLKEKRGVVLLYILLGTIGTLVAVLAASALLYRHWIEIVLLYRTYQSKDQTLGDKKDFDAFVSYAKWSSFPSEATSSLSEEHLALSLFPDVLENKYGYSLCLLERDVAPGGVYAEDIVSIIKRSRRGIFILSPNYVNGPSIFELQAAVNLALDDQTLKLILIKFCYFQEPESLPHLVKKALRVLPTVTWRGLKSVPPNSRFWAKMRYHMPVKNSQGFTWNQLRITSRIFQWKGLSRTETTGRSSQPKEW

B1: human IL-18BP-His (other)
chain: TPVSQTTTAATASVRSTKDPCPSQPPVFPAAKQCPALEVTWPEVEVPLNGTLSLSCVACSRFPNFSILYWLGNGSFIEHLPGRLWEGSTSRERGSTGTQLCKALVLEQLTPALHSTNFSCVLVDPEQVVQRHVVLAQLWAGLRATLPPTQEALPSSHSSPQQQG
notes: also called His-tagged human IL-18BP; not shown: His tag

Legend:
[1] = biological target: T2, Composition B (Atezolizumab/Tecentriq conjugated to IL-18 polypeptide of SEQ ID NO: 30) (human, UniProt P0DOX5 2-449 = IgG part; P0DOX7 1-214; Q14116 37-193, chemical linker to the antibody; site not stated for this composition; chemical linker to IL-18; site not stated for this composition); assay: AlphaLISA of free IL-18BP after incubation with IL-18BP-His
T2 construct: immunocytokine
Procedure: (§1) Under subdued light, 12.5 µl of pre-mixed Donor beads were added, followed by a short centrifugation step at 150 g, and incubated for 30 minutes at 20° C. under shaking at 750 rpm with no light. AlphaLisa signal was then measured on an Enspire plate reader (Perkin Elmer) using 680 and 615 nm as excitation and emission wavelengths respectively.

[2] = biological target: T1, IL-18 receptor (IL-18Rα/IL-18Rβ) on …; assay: cell-based or functional assay
[3] = biological target: T1, IL-18 receptor (IL-18Rα/IL-18Rβ) on …; assay: cell-based or functional assay; remark: listed apart in the source
human IL-18BP-His = biological target: B1; assay: AlphaLISA of free IL-18BP after incubation with IL-18BP-His
Procedure: as §1

[4] = biological target: T1, IL-18 receptor (IL-18Rα/IL-18Rβ) on …; assay: cell-based or functional assay; remark: listed apart in the source

Kd [1] [pM] | EC50, IFNγ secretion, PD-1 positive KG-1 cells [2] [pM] | EC50, IFNγ secretion, parental KG-1 cells [2] [pM] | EC50, IFNγ secretion, NK92 cells [3] [pM] | Kd (human IL-18BP-His) [pM] | EC50, HEK-Blue IL18R reporter cells [4] [pM] | Binder
6380 | – | – | – | – | – | B1
– | 8 | 12 | 2 | 24600 | 0.034 | IL-18 polypeptide of SEQ ID NO: 30 (E6K, V11I, C38A, K53A, T63A, C76A, C127A) (ligand, also called C086) YFGKLKSKLSIIRNLNDQVLFIDQGNRPLFEDMTDSDARDNAPRTIFIISMYADSQPRGMAVAISVKCEKISTLSAENKIISFKEMNPPDNIKDTKSDIIFFQRSVPGHDNKMQFESSSYEGYFLAAEKERDLFKLILKKEDELGDRSIMFTVQNED
